The values that follow come from patent US20220372155A1 (LYVGEN BIOPHARMA, published 2022).

Experiment [1] has as its target T1, human CD40 expressed on CHO cells (human, UniProt P25942 21-277).
T1 construct: whole, on cells; also used for the reporter cells over-expressing human CD40; also called cellular CD40; CHO-CD40 cells
Put plainly: FACS, CHO cells. (A flow cytometer gives signals particle by particle.)

The target of experiment [2] is T2, human B7H4 expressed on CHO cells (human, UniProt Q7Z7D3 25-282).
T2 construct: whole, on cells; also called VCTN1
T2 sequence (looked up): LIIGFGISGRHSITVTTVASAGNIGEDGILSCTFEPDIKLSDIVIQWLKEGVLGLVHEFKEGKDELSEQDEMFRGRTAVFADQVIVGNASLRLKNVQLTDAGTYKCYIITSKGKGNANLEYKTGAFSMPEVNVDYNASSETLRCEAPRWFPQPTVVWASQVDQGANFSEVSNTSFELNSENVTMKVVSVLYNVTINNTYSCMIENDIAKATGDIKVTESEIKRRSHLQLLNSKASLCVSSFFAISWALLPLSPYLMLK
As to the kind of experiment: FACS, CHO cells.

In experiment [3] the target is T3, Human CD40 ECD protein (mouse IgG2a Fc tag) (human, UniProt P25942 21-193).
T3 construct: extracellular domain; also called Human CD40-msFc; human recombinant CD40; not shown: mouse IgG2a Fc tag
Put plainly: bridging ELISA, coated B7H4, soluble CD40 ECD-mFc. The protocol:
Anti-B7H4/CD40 bi-specific antibodies were analyzed by ELISA for their simultaneous binding to recombinant human B7H4 and human CD40. Briefly, human B7H4 protein was diluted and coated onto an ELISA plate with a volume of […] by incubation at 4° C. overnight. The next day, the plate was blocked by PBST-BSA buffer, then serially diluted samples of anti-B7H4/CD40 bi-specific antibodies were pipetted into appropriate wells at 50 μL/well, and the plate was incubated for 1 h followed by Washing. Human CD40 ECD protein (mouse IgG2a Fc tag) was added into the plate at 50 μL/well. After 1-hour incubation at room temperature, HRP-conjugated anti-mouse IgG (H+L) antibody was added into the plate at 100 μL/well. The plate was incubated for 1 hour at room temperature followed by washing. TMB substrate solution was added at 100 μL/well and the color development was stopped by adding 100 uL/well Stop Solution (2N H2SO4). Absorbance at 450 nm and 620 nm was read by Tecan F200 Pro plate reader. GraphPad 7.0, “[Agonist] vs. response—Variable slope (four parameters)” was used to plot the binding data and calculate binding EC50 values.

For experiment [4], the target named is T3, Human CD40 ECD protein (mouse IgG2a Fc …). As to the kind of experiment: bridging ELISA, coated B7H3-His, soluble CD40-msFc. As for the experimental part: Anti-B7H3/CD40 bi-specific antibodies were analyzed by ELISA for their simultaneous binding to recombinant human B7H3 and human CD40. Briefly, Human B7H3 CD protein (His-tag) was diluted and coated onto an ELISA plate with a volume of […] by incubation at 4° C. overnight. The next day, the plate was blocked with PBST-BSA buffer, then serially diluted samples of anti-B7H3/CD40 bi-specific antibodies were pipetted into appropriate wells at 50 μL/well, and the plate was incubated for 1 h followed by washing. Human CD40-msFc antibody was added into the plate at 50 μL/well. After 1-hour incubation at room temperature, […] anti-Mouse IgG (H+L) antibody was added into the plate at 100 μL/well. The plate was incubated for 1 hour at room temperature followed by washing. TMB substrate solution was added at 100 p L/well and the color development was stopped by adding 100 uUwell Stop Solution (2N H2SO4). Absorbance at 450 nm and 620 nm was read by Tecan F200 Pro plate reader. GraphPad 7.0, “[Agonist] vs. response—Variable slope (four parameters)” was used to plot the binding data and calculate binding EC50 values.

The target of experiment [5] is T4, human PD-L1 expressed on CHO cells (human, UniProt Q9NZQ7 19-290).
T4 construct: whole, on cells; also used for human PD-L1 on Raji cells in the reporter assay; also called cell surface PD-L1; Raji-PD-L1 cells
As to the kind of experiment: FACS, CHO cells.

Numbering of substitutions follows the chain as printed. Names may count otherwise.

T1 sequence (P25942 21-277): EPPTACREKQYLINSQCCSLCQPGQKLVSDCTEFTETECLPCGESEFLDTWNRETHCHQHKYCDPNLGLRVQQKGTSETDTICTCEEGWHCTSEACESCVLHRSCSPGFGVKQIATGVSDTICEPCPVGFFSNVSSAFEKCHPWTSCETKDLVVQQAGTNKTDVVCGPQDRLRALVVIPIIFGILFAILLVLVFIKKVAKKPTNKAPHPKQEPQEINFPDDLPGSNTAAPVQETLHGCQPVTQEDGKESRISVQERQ
T3 sequence (P25942 21-193): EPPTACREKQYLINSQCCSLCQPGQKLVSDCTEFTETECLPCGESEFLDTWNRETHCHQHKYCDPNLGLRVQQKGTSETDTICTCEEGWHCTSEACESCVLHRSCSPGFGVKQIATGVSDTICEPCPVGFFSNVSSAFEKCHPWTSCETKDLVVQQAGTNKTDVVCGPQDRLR
T4 sequence (Q9NZQ7 19-290): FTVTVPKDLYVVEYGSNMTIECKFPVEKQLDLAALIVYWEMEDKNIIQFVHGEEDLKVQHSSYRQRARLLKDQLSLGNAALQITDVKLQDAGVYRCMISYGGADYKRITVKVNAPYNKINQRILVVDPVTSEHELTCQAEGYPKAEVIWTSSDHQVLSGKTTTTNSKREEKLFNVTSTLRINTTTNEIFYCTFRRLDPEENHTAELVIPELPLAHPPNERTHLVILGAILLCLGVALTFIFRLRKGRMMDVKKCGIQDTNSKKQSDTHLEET

B1: Ly490 (bispecific antibody, human IgG1, kappa)
heavy: EVQLVESGGGLVKPGGSLKLSCAASGFTFSDSGMHWVRQAPEKGLEWITYINSGSSTIYYADSVKGRFTISRDNAKNTLFLQMTSLRSEDTAMYYCARGRGYAMDYWGQGTSVTVSSASTKGPSVFPLAPSSKSTSGGTAALGCLVKDYFPEPVTVSWNSGALTSGVHTFPAVLQSSGLYSLSSVVTVPSSSLGTQTYICNVNHKPSNTKVDKKVEPKSCDKTHTCPPCPAPELLGPSVFLFPPKPKDTLMISRTPEVTCVVVDVSHEDPEVKFNWYVDGVEVHNAKTKPREEQYNSTYRVVSVLTVLHQDWLNGKEYKCKVSNKALPAPIEKTISKAKGQPREPQVYTLPPSREEMTKNQVSLTCLVKGFYPSDIAVEWESNGQPENNYKTTPPVLDSDGSFFLYSKLTVDKSRWQQGNVFSCSVMHEALHNHYTQKSLSLSPGGGGGSGGGGSGGGGSGGGGSDIQMTQSPSSLSASVGDRVTITCLASEDISNDLAWYQQKPGKAPKLLIYFVDRLLDGVPSRFSGSGSGTDFTLTISSLQPEDFATYYCQQSYKYPPTFGQGTKLEIKGGGGSGGGGSGGGGSGGGGSEVQLVESGGGLVQPGGSLRLSCAASGFTFTNYGLHWVRQAPGKGLEWVSSISPSGGVTYYRDSVKGRFTISRDNSKNTLYLQMNSLRAEDTAVYYCAKPFLGWGGANWIAHWGQGTLVTVSS
light: EIVLTQSPTTMAASPGEKITIFCSASSSISSDFLHWYQQKPGFSPKLLIYRISNLASGVPARFSGSGSGTSYSLTIGTMEAEDVATYYCQQGSNVPRTFGGGTKLEIKRTVAAPSVFIFPPSDEQLKSGTASVVCLLNNFYPREAKVQWKVDNALQSGNSQESVTEQDSKDSTYSLSSTLTLSKADYEKHKVYACEVTHQGLSSPVTKSFNRGEC
notes: Ly366 HC (IgG1 mutated Fc)-TM559 scFv VL-VH + Ly366 LC
For the molecule B1, the binding result in experiment [1], in experiment [2] and in experiment [3] was “binds” in each case.

B2: Ly494 (bispecific antibody, human IgG1, kappa)
heavy: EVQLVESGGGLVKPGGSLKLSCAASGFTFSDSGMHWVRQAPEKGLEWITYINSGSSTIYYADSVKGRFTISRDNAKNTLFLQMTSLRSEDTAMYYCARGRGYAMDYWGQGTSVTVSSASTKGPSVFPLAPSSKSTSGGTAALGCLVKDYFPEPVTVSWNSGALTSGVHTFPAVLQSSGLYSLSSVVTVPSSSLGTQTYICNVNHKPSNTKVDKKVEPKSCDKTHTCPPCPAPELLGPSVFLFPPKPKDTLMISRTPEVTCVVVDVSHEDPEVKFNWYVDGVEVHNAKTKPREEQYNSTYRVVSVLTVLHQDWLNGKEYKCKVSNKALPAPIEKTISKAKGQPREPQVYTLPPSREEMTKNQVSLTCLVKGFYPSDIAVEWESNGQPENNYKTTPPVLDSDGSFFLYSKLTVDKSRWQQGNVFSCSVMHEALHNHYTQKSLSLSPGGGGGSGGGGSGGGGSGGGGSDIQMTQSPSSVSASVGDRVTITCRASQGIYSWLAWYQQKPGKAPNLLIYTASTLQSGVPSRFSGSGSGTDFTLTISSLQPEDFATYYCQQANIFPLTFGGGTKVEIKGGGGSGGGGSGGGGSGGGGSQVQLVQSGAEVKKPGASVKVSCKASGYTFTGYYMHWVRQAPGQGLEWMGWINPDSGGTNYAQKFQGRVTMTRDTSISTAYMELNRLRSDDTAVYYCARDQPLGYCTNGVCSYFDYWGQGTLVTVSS
light: B1 light
notes: Ly366 HC (IgG1 mutated Fc)-Ly253 scFv VL-VH + Ly366 LC
As for B2, the binding result in experiment [1], in experiment [2] and in experiment [3] was “binds” each time.

B3: Ly491 (bispecific antibody, human IgG1, kappa)
heavy: EVQLVESGGGLVKPGGSLKLSCAASGFTFSDSGMHWVRQAPEKGLEWITYINSGSSTIYYADSVKGRFTISRDNAKNTLFLQMTSLRSEDTAMYYCARGRGYAMDYWGQGTSVTVSSASTKGPSVFPLAPSSKSTSGGTAALGCLVKDYFPEPVTVSWNSGALTSGVHTFPAVLQSSGLYSLSSVVTVPSSSLGTQTYICNVNHKPSNTKVDKKVEPKSCDKTHTCPPCPAPELLGPSVFLFPPKPKDTLMISRTPEVTCVVVDVSHEDPEVKFNWYVDGVEVHNAKTKPREEQYNSTYRVVSVLTVLHQDWLNGKEYKCKVSNKALPAPIEKTISKAKGQPREPQVYTLPPSREEMTKNQVSLTCLVKGFYPSDIAVEWESNGQPENNYKTTPPVLDSDGSFFLYSKLTVDKSRWQQGNVFSCSVMHEALHNHYTQKSLSLSPGGGGGSGGGGSGGGGSGGGGSEVQLVESGGGLVQPGGSLRLSCAASGFTFTNYGLHWVRQAPGKGLEWVSSISPSGGVTYYRDSVKGRFTISRDNSKNTLYLQMNSLRAEDTAVYYCAKPFLGWGGANWIAHWGQGTLVTVSSGGGGSGGGGSGGGGSGGGGSDIQMTQSPSSLSASVGDRVTITCLASEDISNDLAWYQQKPGKAPKLLIYFVDRLLDGVPSRFSGSGSGTDFTLTISSLQPEDFATYYCQQSYKYPPTFGQGTKLEIK
light: B1 light
notes: Ly366 HC (IgG1 mutated Fc)-TM559 scFv VH-VL + Ly366 LC
On to B3, for which the binding result in experiment [1], in experiment [2] and in experiment [3] was “binds” each time.

B4: Ly495 (bispecific antibody, human IgG1, kappa)
heavy: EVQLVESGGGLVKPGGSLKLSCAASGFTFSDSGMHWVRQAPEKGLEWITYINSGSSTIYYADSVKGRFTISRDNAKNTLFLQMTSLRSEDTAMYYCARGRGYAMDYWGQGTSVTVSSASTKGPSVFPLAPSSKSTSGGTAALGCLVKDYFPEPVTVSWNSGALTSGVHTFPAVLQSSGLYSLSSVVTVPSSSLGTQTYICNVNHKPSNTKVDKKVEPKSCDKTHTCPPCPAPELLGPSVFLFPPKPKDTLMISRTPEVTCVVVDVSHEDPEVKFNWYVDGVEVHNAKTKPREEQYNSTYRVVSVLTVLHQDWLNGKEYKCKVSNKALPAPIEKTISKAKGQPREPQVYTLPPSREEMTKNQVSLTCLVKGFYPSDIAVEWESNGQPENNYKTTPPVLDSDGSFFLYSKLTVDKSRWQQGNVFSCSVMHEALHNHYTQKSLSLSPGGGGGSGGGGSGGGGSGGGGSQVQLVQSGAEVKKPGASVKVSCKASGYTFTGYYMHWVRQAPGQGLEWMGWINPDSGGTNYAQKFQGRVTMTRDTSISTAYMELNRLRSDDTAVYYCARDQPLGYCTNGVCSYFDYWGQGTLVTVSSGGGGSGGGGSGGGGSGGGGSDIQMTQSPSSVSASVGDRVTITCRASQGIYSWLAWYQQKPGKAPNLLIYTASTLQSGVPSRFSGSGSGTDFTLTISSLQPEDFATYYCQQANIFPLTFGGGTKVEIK
light: B1 light
notes: Ly366 HC (IgG1 mutated Fc)-Ly253 scFv VH-VL + Ly366 LC
As to B4, the binding result in experiment [1], in experiment [2] and in experiment [3] was “binds” in each case.

B5: Ly610 (bispecific antibody, human IgG1, kappa)
heavy: EVQLQQSGPELVKPGASVKMSCKASGYTFTSYVMHWVKQKPGQGLEWIGYINPYNDGTECTDKFKGKATLTSDKSSSTAYMELSSLTSEDSAVYYCASIYYGYDGTYFGVWGAGTSVTVSSASTKGPSVFPLAPSSKSTSGGTAALGCLVKDYFPEPVTVSWNSGALTSGVHTFPAVLQSSGLYSLSSVVTVPSSSLGTQTYICNVNHKPSNTKVDKKVEPKSCDKTHTCPPCPAPELLGPSVFLFPPKPKDTLMISRTPEVTCVVVDVSHEDPEVKFNWYVDGVEVHNAKTKPREEQYNSTYRVVSVLTVLHQDWLNGKEYKCKVSNKALPAPIEKTISKAKGQPREPQVYTLPPSREEMTKNQVSLTCLVKGFYPSDIAVEWESNGQPENNYKTTPPVLDSDGSFFLYSKLTVDKSRWQQGNVFSCSVMHEALHNHYTQKSLSLSPGGGGGSGGGGSGGGGSGGGGSDIQMTQSPSSLSASVGDRVTITCKASQNIYIYLNWYQQKPGKAPKLLIYNTNNLQTGVPSRFSGSGSGTDFTLTISSLQPEDFATYYCLQHSSRRTFGGGTKVEIKGGGGSGGGGSGGGGSGGGGSQVQLVESGGGLVQPGGSLKLSCATSGFNFNDYFMNWVRQASGKGLEWVGQIRNKNYNYATYYTESLEGRVTISRDDSKNTAYLQMNSLKTEDTAVYYCTSYYYDGFADYFDYWGQGTTVTVSS
light: QIVLSQSPAILSTSPGEKVTMTCRASSSVSYMHWYQQKPGSSPKPWIYATSNLASGVPARFSGSRSGTSYSLTISRVEAEDAATYYCQQWSSNTLTFGGGTKLELKRTVAAPSVFIFPPSDEQLKSGTASVVCLLNNFYPREAKVQWKVDNALQSGNSQESVTEQDSKDSTYSLSSTLTLSKADYEKHKVYACEVTHQGLSSPVTKSFNRGEC
notes: Ly383 HC (IgG1 mutated Fc)-TM740 scFv VL-VH + Ly383 LC
For the molecule B5, the binding result in experiment [1] and in experiment [4] was “binds” throughout.

B6: Ly611 (bispecific antibody, human IgG1, kappa)
heavy: EVQLQQSGPELVKPGASVKMSCKASGYTFTSYVMHWVKQKPGQGLEWIGYINPYNDGTECTDKFKGKATLTSDKSSSTAYMELSSLTSEDSAVYYCASIYYGYDGTYFGVWGAGTSVTVSSASTKGPSVFPLAPSSKSTSGGTAALGCLVKDYFPEPVTVSWNSGALTSGVHTFPAVLQSSGLYSLSSVVTVPSSSLGTQTYICNVNHKPSNTKVDKKVEPKSCDKTHTCPPCPAPELLGPSVFLFPPKPKDTLMISRTPEVTCVVVDVSHEDPEVKFNWYVDGVEVHNAKTKPREEQYNSTYRVVSVLTVLHQDWLNGKEYKCKVSNKALPAPIEKTISKAKGQPREPQVYTLPPSREEMTKNQVSLTCLVKGFYPSDIAVEWESNGQPENNYKTTPPVLDSDGSFFLYSKLTVDKSRWQQGNVFSCSVMHEALHNHYTQKSLSLSPGGGGGSGGGGSGGGGSGGGGSQVQLVESGGGLVQPGGSLKLSCATSGFNFNDYFMNWVRQASGKGLEWVGQIRNKNYNYATYYTESLEGRVTISRDDSKNTAYLQMNSLKTEDTAVYYCTSYYYDGFADYFDYWGQGTTVTVSSGGGGSGGGGSGGGGSGGGGSDIQMTQSPSSLSASVGDRVTITCKASQNIYIYLNWYQQKPGKAPKLLIYNTNNLQTGVPSRFSGSGSGTDFTLTISSLQPEDFATYYCLQHSSRRTFGGGTKVEIK
light: B5 light
notes: Ly383 HC (IgG1 mutated Fc)-TM740 scFv VH-VL + Ly383 LC
Turning to B6, the binding result in experiment [1] and in experiment [4] was “binds” throughout.

B7: Ly075 (antibody, human IgG1, kappa, V domains shown)
VH: QVQLVQSGAEVKKPGASVKVSCKASGYTFTDFWMSWVRQAPGQGLEWMGQIYPNTGTTHSNEKFKGRVTMTRDTSTSTVYMELSSLRSEDTAVYYCARSYHISTTPNWFAYWGQGTLVTVSS
VL: DIQMTQSPSSLSASVGDRVTITCKASQNVYKKLEWYQQKPGKVPKLLIYHTNILQTGVPSRFSGSGSGTDFTLTISSLQPEDVATYYCYQWNSGPTFGGGTKVEIKR
notes: humanized LYV5574, VH-1 and VL-1, human IgG1/kappa
Take B7: the binding result in experiment [5] is on record as “binds”.

B8: Ly076 (antibody, human IgG1, kappa, V domains shown)
VH: B7 VH
VL: B7 VL with L46V, F71Y
notes: humanized LYV5574, VH-1 and VL-2 (L42V, F71Y), human IgG1/kappa
As for B8, in experiment [5], the binding result was “binds”.
